Assay results reported in IntAct's records for PubMed 39243984.

B1: Mothers against decapentaplegic homolog 4 (Homo sapiens), Q13485 (parent)
chain: MDNMSITNTPTSNDACLSIVHSLMCHRQGGESETFAKRAIESLVKKLKEKKDELDSLITAITTNGAHPSKCVTIQRTLDGRLQVAGRKGFPHVIYARLWRWPDLHKNELKHVKYCQYAFDLKCDSVCVNPYHYERVVSPGIDLSGLTLQSNAPSSMMVKDEYVHDFEGQPSLSTEGHSIQTIQHPPSNRASTETYSTPALLAPSESNATSTANFPNIPVASTSQPASILGGSHSEGLLQIASGPQPGQQQNGFTGQPATYHHNSTTTWTGSRTAPYTPNLPHHQNGHLQHHPPMPPHPGHYWPVHNELAFQPPISNHPAPEYWCSIAYFEMDVQVGETFKVPSSCPIVTVDGYVDPSGGDRFCLGQLSNVHRTEAIERARLHIGKGVQLECKGEGDVWVRCLSDHAVFVQSYYLDREAGRAPGDAVHKIYPSAYIKVFDLRQCHRQMQQQAATAQAAAAAQAAAVAGNIPGPGSVGGIAPAISLSAAAGIGVDDLRRLCILRMSFVKGWGPDYPRQSIKETPCWIEIHLHRALQLLDEVLHTMPIADPQPLD

Variants of: B1
Conditions: with smad3_human SMAD3, P84022
smad3_human SMAD3, P84022, sequence (P84022 whole entry, looked up): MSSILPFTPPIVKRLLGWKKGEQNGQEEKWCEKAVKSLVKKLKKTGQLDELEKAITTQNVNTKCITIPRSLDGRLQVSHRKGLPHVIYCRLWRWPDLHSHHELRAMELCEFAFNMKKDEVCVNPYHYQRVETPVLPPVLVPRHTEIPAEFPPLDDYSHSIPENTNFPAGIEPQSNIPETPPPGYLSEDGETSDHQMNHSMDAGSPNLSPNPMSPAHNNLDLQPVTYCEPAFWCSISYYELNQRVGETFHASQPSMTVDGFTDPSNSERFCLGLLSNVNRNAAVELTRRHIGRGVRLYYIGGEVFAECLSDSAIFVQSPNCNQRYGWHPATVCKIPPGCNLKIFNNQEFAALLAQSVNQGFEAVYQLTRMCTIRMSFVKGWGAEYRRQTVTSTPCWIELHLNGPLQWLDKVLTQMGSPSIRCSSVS

| Variant | effect of a mutation on the interaction |
| --- | --- |
| R361H | decreasing interaction strength |
| R361C | decreasing interaction strength |

Variants of: B1
Conditions: with smad3_human SMAD3, P84022
Remark: another data set of the same source

| Variant | effect of a mutation on the interaction |
| --- | --- |
| I500V | increasing interaction strength |
